Results taken from US11180789B2, “Method for bioconversion of mogroside extracts into siamenoside I” (National Taiwan University, priority 2019, dated 2021).

Legend:
[1] = relative to 5% sucrose in water; cited from earlier work
[2] = molecular target: T1, recombinant ScExg1 (rScExg1), Exg1p of Saccharomyces cerevisiae (Saccharomyces cerevisiae, UniProt P23776); experiment: Enzyme kinetics of recombinant ScExg1 on oNPG and pNPG substrates (β-glucosidase activity); format: biochemical; conditions: pNP/oNP release at 405 nm
T1 sequence (P23776 41-448): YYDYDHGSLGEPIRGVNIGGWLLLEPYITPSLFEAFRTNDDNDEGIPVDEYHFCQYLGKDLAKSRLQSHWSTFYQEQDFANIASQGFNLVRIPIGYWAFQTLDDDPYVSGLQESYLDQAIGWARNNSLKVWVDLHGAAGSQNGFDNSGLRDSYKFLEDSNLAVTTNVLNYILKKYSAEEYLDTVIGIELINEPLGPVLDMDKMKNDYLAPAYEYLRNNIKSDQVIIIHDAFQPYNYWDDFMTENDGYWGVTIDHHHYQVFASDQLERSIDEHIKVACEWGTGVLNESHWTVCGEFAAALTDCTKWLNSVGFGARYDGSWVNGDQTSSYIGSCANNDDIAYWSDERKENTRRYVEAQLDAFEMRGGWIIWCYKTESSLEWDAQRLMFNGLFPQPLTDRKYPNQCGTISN
Method: The optimal conditions for β-glucosidase activity were determined. The optimum pH was obtained by monitoring enzyme activity at a range of pH levels (from pH 3 to pH 9) in the reaction buffer. Incubation was carried out at 60° C. for 30 min. To analyze enzyme stability, the same buffer system and pH range were used, however, the reactions were performed at 4° C. for 1 h. The optimum temperature was determined in 20 mM acetate buffer at pH 5 in a range of temperatures from 20° C. to 90° C. For temperature stability analysis, β-glucosidase was extracted and activity was monitored following 1 h incubation in 20 mM acetate buffer, pH 5. […] The f-glucosidase activity was determined by measuring the levels of p-nitrophenol (pNP) or o-nitrophenol (oNP) released from pNPG or oNPG after the glucose was hydrolyzed by glucosidase. The released pNP or oNP was detected at a wavelength of 405 nm and calibrated with standard curves. […]
(§1) To evaluate the preferred pH, preferred temperature and hydrolyzing capability of rDbExg1, we used pNPG substrates and compared the results with ScExg1. rDbExg1 retained half of its activity over a pH range of 3.0 to 7.0 and was stable at pH 5.0-7.0. […] The Michaelis constant (Km) and maximum velocity (Vmax) of rDbExg1 and rScExg1 were also compared and calculated (Table 3). […]

[3] = substrate: O=[N+]([O-])c1ccccc1O[C@@H]1O[C@H](CO)[C@@H](O)[C@H](O)[C@H]1O; experiment: as above; format: biochemical, Saccharomyces cerevisiae; conditions: other: rScExg1; pNP/oNP release at 405 nm
Method: (§2) The optimal conditions for β-glucosidase activity were determined. The optimum pH was obtained by monitoring enzyme activity at a range of pH levels (from pH 3 to pH 9) in the reaction buffer. Incubation was carried out at 60° C. for 30 min. To analyze enzyme stability, the same buffer system and pH range were used, however, the reactions were performed at 4° C. for 1 h. The optimum temperature was determined in 20 mM acetate buffer at pH 5 in a range of temperatures from 20° C. to 90° C. For temperature stability analysis, β-glucosidase was extracted and activity was monitored following 1 h incubation in 20 mM acetate buffer, pH 5. […] The enzyme and substrate mixture were incubated under optimum enzymatic reactions conditions of 60° C., pH 5. The f-glucosidase activity was determined by measuring the levels of p-nitrophenol (pNP) or o-nitrophenol (oNP) released from pNPG or oNPG after the glucose was hydrolyzed by glucosidase. The released pNP or oNP was detected at a wavelength of 405 nm and calibrated with standard curves. Mogroside conversion was stopped by the addition of one volume of pure methanol at specific time points. The converted products were then purified for HPLC-MS/MS analysis.
(§3) Because mogrosides are known to be hydrolyzed by Exg1p in S. cerevisiae (ScExg1), we hypothesized that an Exg1-like glucan-β-glucosidase in D. bruxellensis (DbExg1) might be responsible for the observed mogroside conversion. To test this hypothesis, DbExg1 was cloned with a galactose-induced promoter sequence and six-histidine tag (6×His) at the C-terminus of the gene. The plasmids were transformed and expressed in S. cerevisiae as previously described. […] The recombinant DbExg1 (termed rDbExg1) was purified by Ni^2+-affinity chromatography (data not shown).
(§4) To evaluate the preferred pH, preferred temperature and hydrolyzing capability of rDbExg1, we used pNPG substrates and compared the results with ScExg1. rDbExg1 retained half of its activity over a pH range of 3.0 to 7.0 and was stable at pH 5.0-7.0. The optimum pH was 5.0 in a sodium phosphate buffer system (FIG. 3C). […] The optimum temperature for rDbExg1 was 60° C. However, the enzyme only retained 40% of its activity after incubation at 60° C. for 30 min. […] (FIG. 3B). Both ScExg1 and rDbExg1 were stable at temperatures below 50° C. (FIGS. 3B and D). The Michaelis constant (Km) and maximum velocity (Vmax) of rDbExg1 and rScExg1 were also compared and calculated (Table 3).
(§5) Table 3: Kinetic parameters of recombinant DbExg1 and ScExg1 proteins on oNPG and pNPG substrates (4) Enzymatic Hydrolysis of Mogrosides

[4] = substrate: O=[N+]([O-])c1ccc(O[C@@H]2O[C@H](CO)[C@@H](O)[C@H](O)[C@H]2O)cc1; experiment: as above; format: biochemical, Saccharomyces cerevisiae; conditions: other: rScExg1; pNP/oNP release at 405 nm
Method: as §2, §3, §4, §5

[5] = β-Glucosidase activity, pH and temperature optimum and stability of recombinant Exg1 proteins on pNPG; format: biochemical
Method: as §2

[6] = substrate: O=[N+]([O-])c1ccc(O[C@@H]2O[C@H](CO)[C@@H](O)[C@H](O)[C@H]2O)cc1; experiment: Enzyme kinetics of recombinant DbExg1 on oNPG and pNPG substrates (β-glucosidase activity); format: biochemical, Dekkera bruxellensis; conditions: other: rDbExg1, substrate 10 mM, acetate buffer, pH 5, 60° C., pNP/oNP release at 405 nm
From the text: Exg1-like β-glucosidase from Dekkera bruxellensis (DbExg1) was cloned with the Gateway cloning system. Briefly, the coding region of DbExg1 was first amplified by PCR. The forward primer was
underline indicates gene coding region). Genomic DNA extracted from D. bruxellensis was used as the template. Yeast expression vectors (pYES-DEST52) were further introduced to generate galactose-inducible plasmids carrying the correct DbExg1 sequence. The yeast vectors were then amplified and transformed into Exg1-deleted S. cerevisiae (exg1Δ mutants) for the galactose-induced DbExg1 protein expression assay. DbExg1 gene was also integrated into (exg1Δ mutants) with a GPD promoter. For protein purification, the culture media was concentrated with a 30 kDa MWCO (molecular weight cutoff) ultrafiltration membrane (Vivaspin 20, GE Co., Taipei, Taiwan). The extracellular protein concentrates were purified by Ni^2+-affinity chromatography. Protein homogeneity in each fraction was assessed by SDS-PAGE and silver staining.
as §2, with “analysis. […]” for “analysis.”
as §1

[7] = substrate: O=[N+]([O-])c1ccccc1O[C@@H]1O[C@H](CO)[C@@H](O)[C@H](O)[C@H]1O; experiment: purified protein, by the assay type; conditions: other: rDbExg1, substrate 10 mM, acetate buffer, pH 5, 60° C., pNP/oNP release at 405 nm

## C[C@H](CC[C@@H](O[C@@H]1O[C@H](CO)[C@@H](O)[C@H](O)[C@H]1O[C@@H]1O[C@H](CO)[C@@H](O)[C@H](O)[C@H]1O)C(C)(C)O)[C@H]1CC[C@@]2(C)[C@H]3CC=C4[C@@H](CC[C@H](O[C@@H]5O[C@H](CO[C@@H]6O[C@H](CO)[C@@H](O)[C@H](O)[C@H]6O)[C@@H](O)[C@H](O)[C@H]5O)C4(C)C)[C@]3(C)[C@H](O)C[C@]12C [MG IV, mogroside IV]
[1]
  times sweeter than 5% sucrose: 465 times

## C[C@H](CC[C@@H](O[C@@H]1O[C@H](CO[C@@H]2O[C@H](CO)[C@@H](O)[C@H](O)[C@H]2O)[C@@H](O)[C@H](O)[C@H]1O[C@@H]1O[C@H](CO)[C@@H](O)[C@H](O)[C@H]1O)C(C)(C)O)[C@H]1CC[C@@]2(C)[C@@H]3CC=C4[C@@H](CC[C@H](O[C@@H]5O[C@H](CO[C@@H]6O[C@H](CO)[C@@H](O)[C@H](O)[C@H]6O)[C@@H](O)[C@H](O)[C@H]5O)C4(C)C)[C@]3(C)[C@H](O)C[C@]12C [MG V, mogroside V]
[1]
  times sweeter than 5% sucrose: 392 times

## C[C@H](CC[C@@H](O[C@@H]1O[C@H](CO)[C@@H](O)[C@H](O)[C@H]1O[C@@H]1O[C@H](CO)[C@@H](O)[C@H](O)[C@H]1O)C(C)(C)O)[C@H]1CC[C@@]2(C)[C@@H]3CC=C4[C@@H](CC[C@H](O[C@@H]5O[C@H](CO)[C@@H](O)[C@H](O)[C@H]5O)C4(C)C)[C@]3(C)[C@H](O)C[C@]12C [MG IIIE, mogroside III E]
[1]
  times sweeter than 5% sucrose: less sweet

## O=[N+]([O-])c1ccccc1O[C@@H]1O[C@H](CO)[C@@H](O)[C@H](O)[C@H]1O [o NPG, o-nitrophenol β-D-glucoside]
[2]
  Kcat: 0.458 ± 0.012 s⁻¹
  Vmax: 9.16 ± 0.247 µmol/min/mg

## C[C@H](CC[C@@H](O[C@@H]1O[C@H](CO[C@@H]2O[C@H](CO)[C@@H](O)[C@H](O)[C@H]2O)[C@@H](O)[C@H](O)[C@H]1O[C@@H]1O[C@H](CO)[C@@H](O)[C@H](O)[C@H]1O)C(C)(C)O)[C@H]1CC[C@@]2(C)[C@@H]3CC=C4[C@@H](CC[C@H](O[C@@H]5O[C@H](CO)[C@@H](O)[C@H](O)[C@H]5O)C4(C)C)[C@]3(C)[C@H](O)C[C@]12C [SI, siamenoside I]
[1]
  times sweeter than 5% sucrose: 563 times

B1: recombinant ScExg1 (rScExg1), Exg1p of Saccharomyces cerevisiae (Saccharomyces cerevisiae S288C) (protein)
chain: YYDYDHGSLGEPIRGVNIGGWLLLEPYITPSLFEAFRTNDDNDEGIPVDEYHFCQYLGKDLAKSRLQSHWSTFYQEQDFANIASQGFNLVRIPIGYWAFQTLDDDPYVSGLQESYLDQAIGWARNNSLKVWVDLHGAAGSQNGFDNSGLRDSYKFLEDSNLAVTTNVLNYILKKYSAEEYLDTVIGIELINEPLGPVLDMDKMKNDYLAPAYEYLRNNIKSDQVIIIHDAFQPYNYWDDFMTENDGYWGVTIDHHHYQVFASDQLERSIDEHIKVACEWGTGVLNESHWTVCGEFAAALTDCTKWLNSVGFGARYDGSWVNGDQTSSYIGSCANNDDIAYWSDERKENTRRYVEAQLDAFEMRGGWIIWCYKTESSLEWDAQRLMFNGLFPQPLTDRKYPNQCGTISN
[3]
  Km: 840 ± 42 µM
[4]
  Km: 865 ± 3 µM
  Vmax: 11.7 µmol/min/mg
  kcat: 0.587 ± 0.018 s⁻¹
  kcat/Km: 679 ± 5 M⁻¹ s⁻¹
[5]
  optimum temperature: 50 °C

B2: recombinant DbExg1 (rDbExg1), Exg1-like β-glucosidase from Dekkera bruxellensis, C-terminal 6xHis (Brettanomyces bruxellensis) (protein)
chain: APIILKKRDWDYTKDKIHGVNIGGWLVLEPYITPSLFETFGDDAPVDEYHYTQQLGKEEASKRLQEHWANWITEKDFEYIANLGLNMVRIPIGYWAFELQDNDPYVQGQQAYLDKALGWAEKNGLKVWIDLHGVPGSQNGFDNSGLRDQIDWQTGSGNVDFTLNVLKEMIEKYSDSDYSDTIIGIELLNEPLGSSLNMDELKVFYSSGYELVRDQDASVPVIIQDAFQSDYYWDDFLNTEQDTNIYGVVVDHHHYQVFSTGELQRDMDTRIQTACNWGKQEGGEYHWNVCGEFSAALTDCAKWLNGLGRGARYDSSYGGGAYVGSCDDLYTYDEDYWNNSDVIKQYRQYVEAQMDAFENGKMGGWVFWCWKTESAVEWDFQRLAGLNVIPQPLDDRLYPNQCSF
[6]
  Km: 734 ± 2 µM
  Vmax: 9.27 µmol/min/mg
  kcat: 0.464 ± 0.006 s⁻¹
  kcat/Km: 632 ± 7 M⁻¹ s⁻¹
[7]
  Km: 781 ± 4 µM
  Vmax: 10.4 µmol/min/mg
  kcat: 0.518 s⁻¹
  kcat/Km: 663 M⁻¹ s⁻¹
